Ends that are not written are not given here.
Columns and labels:
[1] = In vitro release test of GLP-1 from Zinc/GLP-1 complex; format: physicochemical; details: PBS pH 7.4, 37° C.
Experimental: The quantification of GLP-1 analogue was carried out using RP-HPLC.
400 μg of each of WT-GLP-1 and GLP-1 analogue (Peptide 1) was dissolved in a 1 mM HCl solution (200 μL, pH: 2.8) containing 2 mg/mL zinc chloride. 100 μL of each of the resulting solutions was added to E-tube and diluted with a 1 mM HCl solution, whereby a 1 mg/mL solution was prepared. Then, 20 μL of PB (pH: 8.9, 100 mM) was added thereto, whereby a complex of Zinc/GLP-1 was formed. After the resulting mixture was centrifuged at 15,000 rpm for 5 minutes, the supernatant was removed, whereby a Zinc/GLP-1 complex was obtained.
PBS (0.5 mL, pH: 7.4) was added to E-tube containing the Zinc/GLP-1 complex at 37° C. The E-tube was centrifuged at different time points, and the supernatant was sampled, and 0.5 mL of PBS was freshly added thereto. 20 μL of 0.2 M HCl was added to 200 μL of the sample, and quantification was carried out by RP-HPLC.

[2] = Precipitation of peptide as zinc salt, peptide in supernatant by RP-HPLC; format: physicochemical; details: Z/P=15, peptide 1 mg/mL, 100 mM HEPES pH 7.4, 25° C., 18 hours
Experimental: Further, zinc chloride was dissolved in Milli-Q water to give a final concentration of 1 mg/mL. 1 M HEPES buffer (pH 7.4) was separately prepared. To the aqueous solution of peptide, the HEPES buffer, Milli-Q water and the aqueous solution of zinc chloride were sequentially added, whereby a sample was prepared such that the final volume was 30 mL, the final concentration of peptide was 1 mg/mL, the final concentration of HEPES (pH 7.4) was 100 mM, and the ratio of zinc chloride to Peptide 1 became Z/P=1. The resulting solution was let stand at room temperature (25° C.) for 18 hours. […] The solution was subjected to a centrifugation procedure (10,000 g, 3 min) and decantation, whereby the white precipitate and supernatant were separated.
Further, zinc chloride was dissolved in Milli-Q water to give a final concentration of 1 mg/mL. 1 M HEPES buffer (pH 7.4) was separately prepared. […] The resulting solution was let stand at room temperature (25° C.) for 18 hours. […] The solution was subjected to a centrifugation procedure (10,000 g, 3 min) and decantation, whereby the white precipitate and supernatant were separated.

[3] = peptide 100 μg/mL, 100 mM HEPES pH 7.4, 25° C., 18 hours
Experimental: Further, zinc chloride was dissolved in Milli-Q water to give a final concentration of 0.1 mg/mL. 1 M HEPES (N-[2-hydroxyethyl]piperazine-N′-[2-ethanesulfonic acid]) buffer (pH 7.4) was separately prepared. To each of the aqueous solutions of peptide, the HEPES buffer, Milli-Q water and the aqueous solution of zinc chloride were sequentially added, whereby samples were prepared such that the final volume was 1 mL, the final concentration of peptide was 100 μg/mL, the final concentration of HEPES (pH 7.4) was 100 mM, and the ratio of zinc chloride to the mole number of peptide became various ratios (Z/P=0 to 30). These samples were let stand at room temperature (25° C.) for 18 hours. Each mixture was centrifuged (10,000 g, 3 min), and the concentration of peptide in the supernatant was determined by RP-HPLC.

[4] = Evaluation for aggregability by stirring in PBS (absorbance at 350 nm, monomer by RP-HPLC); format: physicochemical; details: 1 mg/mL in PBS
Experimental: Each of the GLP-1 analogue and WT-GLP-1 in Example 1 was dissolved in PBS at a concentration of 1 mg/mL, and the amount of monomer was determined by RP-HPLC. 450 μL of each of the same solutions was placed into a glass vial along with a stirring bar, and the solution was stirred with a stirrer at room temperature for 20 hours. After stirring, the absorbance of the solution at 350 nm was determined (DU640, manufactured by Beckman). As for the supernatant after centrifugation, the monomer quantification by RP-HPLC and CD measurement (J-725, manufactured by Jasco Co.) were carried out.
System: NanoSpace SI-2 (manufactured by Shiseido Co., Ltd.)
Column: Capcell PAK C18, 1 mm×75 mm (manufactured by Shiseido Co., Ltd.)
Eluent A: water/acetonitrile/TFA=949/50/1
Eluent B: water/acetonitrile/TFA=50/949/1
Elution method: Gradient from 80/20 to 20/80 (Eluent A/Eluent B)
The aggregability of Peptide 3 was evaluated in the same manner as the method shown in Example 2.

[5] = target: Human GLP-1 receptor (human, UniProt P43220); assay: cell-based or functional assay

**Q.** Which “release observed until day” value [1] does the source give for `CC[C@H](C)[C@H](NC(=O)[C@H](Cc1ccccc1)NC(=O)[C@H](CCC(=O)O)NC(=O)[C@H](CCCCN)NC(=O)[C@H](C)NC(=O)[C@H](C)NC(=O)[C@H](CCC(N)=O)NC(=O)CNC(=O)[C@H](CCC(=O)O)NC(=O)[C@H](CC(C)C)NC(=O)[C@H](Cc1ccc(O)cc1)NC(=O)[C@H](CO)NC(=O)[C@H](CO)NC(=O)[C@@H](NC(=O)[C@H](CC(=O)O)NC(=O)[C@H](CO)NC(=O)[C@@H](NC(=O)[C@H](Cc1ccccc1)NC(=O)[C@@H](NC(=O)CNC(=O)[C@H](CCC(=O)O)NC(=O)[C@H](C)NC(=O)[C@@H](N)Cc1c[nH]cn1)[C@@H](C)O)[C@@H](C)O)C(C)C)C(=O)N[C@@H](C)C(=O)N[C@@H](Cc1c[nH]c2ccccc12)C(=O)N[C@@H](CC(C)C)C(=O)N[C@H](C(=O)N[C@@H](CCCCN)C(=O)NCC(=O)N[C@@H](CCCNC(=N)N)C(=O)NCC(=O)O)C(C)C` [WT, GLP-1(7-37)] here?
**A.** Its value is 14 days.

**Q.** And the “peptide precipitated as a zinc salt” value [2]?
**A.** The value was 95.7%.

**Q.** Which “ratio of added zinc to peptide (Z/P) when the solubility was the lowest” value [3] does the source give for “HGEGTFTSDVSSYLEGQAAKEFIRWLVKGRG [Peptide 1, [Gly^8]-[Arg^30]-GLP-1(7-37)]” here?
**A.** The value was “around 1”.

**Q.** With “Peptide 3: comparative GLP-1 analogue with an isoelectric point nearly equal to that of Peptide 1 (HGEGTFTSDVKSYLEGQAAKEFIAWLVKGRG)” as the molecule, how does the “aggregability compared with WT-GLP-1” value ([4]; stirred 20 hours) read?
**A.** Its value is “an increase in the aggregability compared with that of WT-GLP-1 was not observed”.

**Q.** What about the “UV 350 nm Absorbance” value ([4]; stirred at room temperature for 20 hours) of the same molecule?
**A.** The value was 0.06.

**Q.** And the “RP-HPLC Amount of residual monomer (%)” value ([4]; stirred at room temperature for 20 hours, supernatant after centrifugation)?
**A.** Its value is 95%.

**Q.** Which “EC50 value for cAMP production” value [5] does the source give for HGEGTFTSDVSSYLEGQAAKEFIRWLVKGRG [[Gly^8]-[Arg^30]-GLP-1(7-37)] here?
**A.** The value was 90.2 pM.
